# Target: the molecule itself
# Test: non-reducing SDS-PAGE with immunoblot; iMEF stably expressing ev or m152-V5, stimulated with 10 μg/ml ISD (also with Brefeldin A); lysis in 25 mM Tris-HCl pH 7.6, 150 mM NaCl, 1% IGEPAL CA-630, 1% sodium deoxycholate, 0.1% SDS; anti-STING blot for STING dimers
protein,measurement,value
"endogenous murine STING (natural protein, stimulator of interferon genes (STING), endogenous in immortalized B6J mouse embryonic fibroblasts; Dimers seen on non-reducing SDS-PAGE after ISD stimulation; also called Endogenous STING; source: endogenous, iMEF lysate) MPYSNLHPAIPRPRGHRSKYVALIFLVASLMILWVAKDPPNHTLKYLALHLASHELGLLLKNLCCLAEELCHVQSRYQGSYWKAVRACLGCPIHCMAMILLSSYFYFLQNTADIYLSWMFGLLVLYKSLSMLLGLQSLTPAEVSAVCEEKKLNVAHGLAWSYYIGYLRLILPGLQARIRMFNQLHNNMLSGAGSRRLYILFPLDCGVPDNLSVVDPNIRFRDMLPQQNIDRAGIKNRVYSNSVYEILENGQPAGVCILEYATPLQTLFAMSQDAKAGFSREDRLEQAKLFCRTLEEILEDVPESRNNCRLIVYQEPTDGNSFSLSQEVLRHIRQEEKEEVTMNAPMTSVAPPPSVLSQEPRLLISGMDQPLPLRTDLI",stoichiometry N,2

# Source: PMC6396373, “The herpesviral antagonist m152 reveals differential activation of STING‐dependent IRF and NF‐κB signaling and STING's dual role during MCMV infection” (The EMBO Journal, 2019)
